# The supplement of paper PMC9233669
# Fewer inactive variants are shown than the library holds.
# How the values were obtained:
# [1] = tested on: biotinyl-Ile-oxazolone; experiment: self-aminoacylation, catalytic enhancement (BIO) (fold over background); higher = more active; k-Seq, kA / k0A0; sequences stand for … in GGGAAUGGAUCCACAUCUACGAAUUC…UUCACUGCAGACUUGACGAAGCUG
# Outline: (§1)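 Mutagenized RNA pools with a 21-nt variable region (0.43 μM) reacted with each biotinyl-aminoacyl-oxazolone at 2–1250 μM. Reactions ran in 50 μL HEPES/NaCl/KCl/MgCl2/CaCl2 buffer with 5% acetonitrile, pH 6.9–7.0, for 90 minutes at room temperature. Streptavidin-captured RNA was quantified by triplicate qPCR and Illumina sequencing, and per-sequence fraction reacted was fit to a pseudo-first-order model with 1000 bootstraps. Catalytic enhancement is median kA divided by the uncatalyzed rate, the low-activity peak of a bimodal Gaussian fit.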
# [2] = tested on: biotinyl-Phe-oxazolone; experiment: self-aminoacylation, catalytic enhancement (BFO) (fold over background); higher = more active; k-Seq, kA / k0A0; sequences stand for … in GGGAAUGGAUCCACAUCUACGAAUUC…UUCACUGCAGACUUGACGAAGCUG
# Outline: as §1
# [3] = tested on: biotinyl-Val-oxazolone; experiment: self-aminoacylation, catalytic enhancement (BVO) (fold over background); higher = more active; k-Seq, kA / k0A0; sequences stand for … in GGGAAUGGAUCCACAUCUACGAAUUC…UUCACUGCAGACUUGACGAAGCUG
# Outline: as §1
# [4] = tested on: biotinyl-Trp-oxazolone; experiment: self-aminoacylation, catalytic enhancement (BWO) (fold over background); higher = more active; k-Seq, kA / k0A0; sequences stand for … in GGGAAUGGAUCCACAUCUACGAAUUC…UUCACUGCAGACUUGACGAAGCUG
# Outline: as §1
# [5] = tested on: biotinyl-Met-oxazolone; experiment: self-aminoacylation, catalytic enhancement (BMO) (fold over background); higher = more active; k-Seq, kA / k0A0; sequences stand for … in GGGAAUGGAUCCACAUCUACGAAUUC…UUCACUGCAGACUUGACGAAGCUG
# Outline: as §1
# [6] = tested on: biotinyl-Leu-oxazolone; experiment: self-aminoacylation, catalytic enhancement (BLO) (fold over background); higher = more active; k-Seq, kA / k0A0; sequences stand for … in GGGAAUGGAUCCACAUCUACGAAUUC…UUCACUGCAGACUUGACGAAGCUG
# Outline: as §1
Sequence,self-aminoacylation [1],self-aminoacylation [2],self-aminoacylation [3],self-aminoacylation [4],self-aminoacylation [5],self-aminoacylation [6]
CUACUCCAAACAAUCGGACUG [Fam1A.1 aminoacylation ribozyme variant],0.74,1.13,0.711,0.909,0.762,0.6
CUACUCCAAACAAUUGGUCUG [Fam1A.1 aminoacylation ribozyme variant],1.13,0.67,1.03,0.642,1.09,1.02
CUACUCCAAACACUCGGUCUG [Fam1A.1 aminoacylation ribozyme variant],1.12,1.15,0.962,1.52,0.93,1.03
CUACUCCAAACCAUCGGUCUG [Fam1A.1 aminoacylation ribozyme variant],1.1,1.16,0.971,1.01,0.961,1.03
CUACUCCAAAGAAUCGGUCUG [Fam1A.1 aminoacylation ribozyme variant],0.927,0.807,0.764,0.807,0.731,1.03
CUACUCCAGACAAUCGGUCUG [Fam1A.1 aminoacylation ribozyme variant],1,0.42,1.14,0.923,1.29,1.07
CUACUCCAUACAAUCGGUCUG [Fam1A.1 aminoacylation ribozyme variant],0.833,0.859,0.751,0.549,0.719,0.628
CUACUCUAAACAAUCGGUCUG [Fam1A.1 aminoacylation ribozyme variant],0.808,0.77,0.873,0.651,0.776,0.727
CUACUGAAAACAAUCGGUCUG [Fam1A.1 aminoacylation ribozyme variant],0.84,0.542,0.706,0.78,0.735,0.708
CUACUGCCAACAAUCGGUCUG [Fam1A.1 aminoacylation ribozyme variant],0.744,0.775,0.744,0.531,0.773,0.64
CUACUUAAAACAAUCGGUCUU [Fam1A.1 aminoacylation ribozyme variant],0.742,0.533,0.706,0.524,0.799,0.617
CUACUUAAAACAAUCGGUUUG [Fam1A.1 aminoacylation ribozyme variant],0.672,0.655,0.627,0.596,0.718,0.621
CUACUUAAAACAGUCGGUCUG [Fam1A.1 aminoacylation ribozyme variant],0.799,0.624,0.78,0.454,0.742,1.05
CUACUUCAAAAAAGCGGUCUG [Fam1A.1 aminoacylation ribozyme variant],0.999,0.451,0.801,0.633,1.02,0.966
CUACUUCAAAAAAUCCGUCUG [Fam1A.1 aminoacylation ribozyme variant],0.834,1.02,0.945,0.897,0.854,0.682
CUACUUCAAAAAAUCGGUCUG [Fam1A.1 aminoacylation ribozyme variant],1,11.8,0.795,7.37,0.758,0.92
CUACUUCAAAAAAUCGGUCUU [Fam1A.1 aminoacylation ribozyme variant],1.02,5.8,0.807,4.11,0.966,1.05
CUACUUCAAAAAAUCUGUCUG [Fam1A.1 aminoacylation ribozyme variant],0.84,1.36,0.699,0.797,0.589,0.61
CUACUUCAAACAAACAGUCUG [Fam1A.1 aminoacylation ribozyme variant],0.864,0.8,0.728,0.534,0.54,0.671
CUACUUCAAACAAACGAUCUG [Fam1A.1 aminoacylation ribozyme variant],0.693,0.828,0.779,0.336,0.728,0.569
CUACUUCAAACAAACGGACUG [Fam1A.1 aminoacylation ribozyme variant],0.684,0.548,0.718,0.574,0.473,0.546
CUACUUCAAACAAACGGUCUU [Fam1A.1 aminoacylation ribozyme variant],0.904,0.824,0.901,0.74,0.982,0.879
CUACUUCAAACAAACGGUUUG [Fam1A.1 aminoacylation ribozyme variant],0.803,0.656,0.796,0.396,0.719,0.67
CUACUUCAAACAACCGGGCUG [Fam1A.1 aminoacylation ribozyme variant],1.46,2.15,1.22,0.852,1.35,1.27
CUACUUCAAACAACCGGUCCG [Fam1A.1 aminoacylation ribozyme variant],0.993,0.643,1.01,1,0.703,0.962
CUACUUCAAACAACCGGUCUU [Fam1A.1 aminoacylation ribozyme variant],1.32,0.875,0.899,1.05,0.686,0.871

Sequence,self-aminoacylation [1],self-aminoacylation [2],self-aminoacylation [3],self-aminoacylation [4],self-aminoacylation [5],self-aminoacylation [6]
CUACUUCAAACAACCGUUCUG [Fam1A.1 aminoacylation ribozyme variant],0.723,0.558,0.676,0.515,0.611,0.625
CUACUUCAAACAAGCGCUCUG [Fam1A.1 aminoacylation ribozyme variant],0.868,0.571,0.86,0.842,0.654,0.852
CUACUUCAAACAAGUGGUCUG [Fam1A.1 aminoacylation ribozyme variant],0.968,0.734,0.919,0.516,0.7,0.885
CUACUUCAAACAAUAGGACUG [Fam1A.1 aminoacylation ribozyme variant],0.633,0.544,0.625,0.515,0.6,0.585
CUACUUCAAACAAUAGGGCUG [Fam1A.1 aminoacylation ribozyme variant],0.844,0.8,0.631,0.391,0.557,0.523
CUACUUCAAACAAUCCGUCGG [Fam1A.1 aminoacylation ribozyme variant],0.947,1.23,0.98,0.636,0.867,0.901
CUACUUCAAACAAUCCGUCUA [Fam1A.1 aminoacylation ribozyme variant],0.801,1.07,0.88,0.596,0.611,0.651
CUACUUCAAACAAUCGAUCAG [Fam1A.1 aminoacylation ribozyme variant],0.554,1.15,0.654,0.617,0.497,0.659
CUACUUCAAACAAUCGCGCUG [Fam1A.1 aminoacylation ribozyme variant],1.47,1.59,1.35,1.1,1.52,1.88
CUACUUCAAACAAUCGCUAUG [Fam1A.1 aminoacylation ribozyme variant],0.99,1.32,0.973,0.755,0.958,0.878
CUACUUCAAACAAUCGCUCGG [Fam1A.1 aminoacylation ribozyme variant],1.02,0.822,0.954,0.747,0.763,0.768
CUACUUCAAACAAUCGGACUC [Fam1A.1 aminoacylation ribozyme variant],0.675,5.7,0.7,2.57,0.563,0.624
CUACUUCAAACAAUCGGCUUG [Fam1A.1 aminoacylation ribozyme variant],1.27,2.59,1.35,2.53,1.1,1.21
CUACUUCAAACAAUCGGUCAU [Fam1A.1 aminoacylation ribozyme variant],0.892,4.39,1.01,1.88,0.666,0.892
CUACUUCAAACAAUCGGUCGA [Fam1A.1 aminoacylation ribozyme variant],0.884,14.9,0.974,6.82,0.807,0.992
CUACUUCAAACAAUCGUUCUA [Fam1A.1 aminoacylation ribozyme variant],0.582,1.08,0.801,0.631,0.545,0.559
CUACUUCAAACAAUUGGUGUG [Fam1A.1 aminoacylation ribozyme variant],1.19,1.52,1.12,1.23,1.24,1.62
CUACUUCAAACACUCCGUCUG [Fam1A.1 aminoacylation ribozyme variant],0.772,0.78,0.869,0.771,0.845,0.727
CUACUUCAAACAGUCGGUAUG [Fam1A.1 aminoacylation ribozyme variant],0.6,0.447,0.552,0.554,0.587,0.532
CUACUUCAAACAUUCAGUCUG [Fam1A.1 aminoacylation ribozyme variant],1.04,0.971,0.812,0.602,0.734,0.741
CUACUUCAAACAUUCGGUAUG [Fam1A.1 aminoacylation ribozyme variant],0.968,0.64,1.12,0.924,0.993,1.05
CUACUUCAAACAUUCGGUGUG [Fam1A.1 aminoacylation ribozyme variant],1.4,8.08,1.51,1.39,1.82,1.73
CUACUUCAAACAUUGGGUCUG [Fam1A.1 aminoacylation ribozyme variant],0.914,0.555,0.977,0.716,0.944,0.868
CUACUUCAAACAUUUGGUCUG [Fam1A.1 aminoacylation ribozyme variant],1.13,0.677,0.984,0.678,0.873,0.802
CUACUUCAAACCAUCGGCCUG [Fam1A.1 aminoacylation ribozyme variant],1.82,1.51,1.94,1.71,1.63,1.45
